This note sets out measurements from patent US20050266528A1.

For this assay, the target named is von Willebrand factor (vWF) (UniProt P04275). Nature of the assay: affinity chromatography, peptide immobilised, linear 0-2 mol/l NaCl gradient, vWF antigen ELISA of fractions. In general terms: ELISA stands for enzyme-linked immunosorbent assay.
UniProt P04275, sequence (P04275 764-2813): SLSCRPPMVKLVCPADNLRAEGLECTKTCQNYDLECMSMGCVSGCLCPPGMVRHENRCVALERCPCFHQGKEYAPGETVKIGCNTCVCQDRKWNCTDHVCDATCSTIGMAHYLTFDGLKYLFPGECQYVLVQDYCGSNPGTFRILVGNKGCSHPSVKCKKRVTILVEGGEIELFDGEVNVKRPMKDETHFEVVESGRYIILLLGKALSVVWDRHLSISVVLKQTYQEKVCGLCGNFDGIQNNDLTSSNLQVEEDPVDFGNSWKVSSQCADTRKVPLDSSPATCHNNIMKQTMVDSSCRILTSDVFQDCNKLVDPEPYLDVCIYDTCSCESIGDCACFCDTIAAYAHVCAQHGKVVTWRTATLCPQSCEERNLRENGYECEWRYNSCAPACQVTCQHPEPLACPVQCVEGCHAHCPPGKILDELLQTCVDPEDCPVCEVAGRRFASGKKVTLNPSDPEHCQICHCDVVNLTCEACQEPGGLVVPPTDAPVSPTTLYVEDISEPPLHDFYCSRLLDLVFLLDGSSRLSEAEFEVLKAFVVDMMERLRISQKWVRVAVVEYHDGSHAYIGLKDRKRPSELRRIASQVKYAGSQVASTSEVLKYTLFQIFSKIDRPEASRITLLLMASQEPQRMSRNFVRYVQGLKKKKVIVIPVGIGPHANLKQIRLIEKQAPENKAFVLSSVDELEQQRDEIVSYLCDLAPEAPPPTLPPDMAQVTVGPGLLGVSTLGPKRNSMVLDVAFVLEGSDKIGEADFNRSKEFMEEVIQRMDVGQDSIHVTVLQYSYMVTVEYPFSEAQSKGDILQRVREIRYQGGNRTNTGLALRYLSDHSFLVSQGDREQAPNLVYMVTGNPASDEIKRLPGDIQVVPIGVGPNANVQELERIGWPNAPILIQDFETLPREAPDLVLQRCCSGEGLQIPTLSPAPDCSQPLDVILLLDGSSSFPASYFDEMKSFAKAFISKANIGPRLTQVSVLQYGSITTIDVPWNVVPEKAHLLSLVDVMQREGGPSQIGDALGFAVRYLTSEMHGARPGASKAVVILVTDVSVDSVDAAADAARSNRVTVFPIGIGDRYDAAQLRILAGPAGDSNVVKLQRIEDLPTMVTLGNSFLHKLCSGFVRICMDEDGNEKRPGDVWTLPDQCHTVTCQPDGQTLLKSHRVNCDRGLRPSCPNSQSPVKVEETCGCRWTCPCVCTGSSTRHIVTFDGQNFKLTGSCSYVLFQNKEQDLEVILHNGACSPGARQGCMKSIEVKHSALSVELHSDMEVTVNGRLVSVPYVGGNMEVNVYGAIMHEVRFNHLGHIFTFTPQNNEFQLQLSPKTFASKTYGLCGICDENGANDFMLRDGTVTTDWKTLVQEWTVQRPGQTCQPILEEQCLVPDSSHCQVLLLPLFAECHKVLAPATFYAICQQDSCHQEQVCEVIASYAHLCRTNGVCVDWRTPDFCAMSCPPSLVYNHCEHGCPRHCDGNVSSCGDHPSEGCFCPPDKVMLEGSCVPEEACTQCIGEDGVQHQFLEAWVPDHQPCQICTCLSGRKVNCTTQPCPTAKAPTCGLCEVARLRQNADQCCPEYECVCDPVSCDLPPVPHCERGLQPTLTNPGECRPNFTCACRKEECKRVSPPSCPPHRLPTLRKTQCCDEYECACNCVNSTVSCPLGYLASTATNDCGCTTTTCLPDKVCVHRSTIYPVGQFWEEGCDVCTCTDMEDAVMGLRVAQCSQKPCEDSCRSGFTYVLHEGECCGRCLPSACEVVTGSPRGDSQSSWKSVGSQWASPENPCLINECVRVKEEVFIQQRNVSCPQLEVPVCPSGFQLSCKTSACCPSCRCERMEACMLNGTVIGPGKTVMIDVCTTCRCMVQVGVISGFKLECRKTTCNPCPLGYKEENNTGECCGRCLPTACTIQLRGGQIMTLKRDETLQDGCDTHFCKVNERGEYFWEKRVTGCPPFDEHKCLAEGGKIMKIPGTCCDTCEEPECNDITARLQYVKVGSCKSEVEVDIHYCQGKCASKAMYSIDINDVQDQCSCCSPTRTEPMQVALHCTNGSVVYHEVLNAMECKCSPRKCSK

Molecule AAGGILHLELLV [peptide with the sequence …] yielded a NaCl concentration at which vWF elutes from the peptide of 100 mmol/L.
